Reference: PMC12459236

Biological target: SpyTag-AP205 recombinant protein (self-assembled AP205 nanoparticles) (bacteriophage AP205)
Experiment: SDS-PAGE of covalent coupling; purified ST-AP205 and CTD-SC mixed at designated molar ratios, left overnight at 4°C; covalent SpyTag-SpyCatcher coupling read by SDS-PAGE

## PDCoV S1-CTD-SpyCatcher recombinant protein
  rate of formation of CTDnps (ST-AP205:CTD-SC molar ratio 4:10): > 80%
